From publication PMC2839002 come the findings set out here.

The test concerns the target YFP-SmB′ (UniProt P14678). In words: co-IP.

Consider “coilin, endogenous in HeLa (from UniProt P38432 1-576) (natural protein)”, for which the fold coilin recovered with anti-GFP relative to NMS stood at 4.5 fold.
